Target: CD123 on the surface of EOL-1, KOPN-8 and MOLM-1 cells (UniProt P26951)
Assay: cell-based or functional assay

Chain of CD123 on the surface of EOL-1, KOPN-8 and MOLM-1 cells (P26951 19-378 limits assumed): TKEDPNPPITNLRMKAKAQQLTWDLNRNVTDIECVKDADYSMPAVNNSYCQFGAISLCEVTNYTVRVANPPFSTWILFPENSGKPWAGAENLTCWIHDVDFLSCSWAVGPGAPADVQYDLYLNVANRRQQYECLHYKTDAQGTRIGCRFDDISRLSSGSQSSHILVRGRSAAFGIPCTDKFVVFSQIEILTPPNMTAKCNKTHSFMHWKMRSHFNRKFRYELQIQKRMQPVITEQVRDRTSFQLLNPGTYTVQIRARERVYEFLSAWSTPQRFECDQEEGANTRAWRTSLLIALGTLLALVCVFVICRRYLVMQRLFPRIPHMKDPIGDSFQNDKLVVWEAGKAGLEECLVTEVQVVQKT

B1: huCD123-6Rv1.1-D2 (antibody, from a related filing, V domains shown)
VH: QFQLVQSGAEVVKPGASVKMSCKASGYTFTSSIMHWMKQKPGQGLEWIGYIKPYNDGTKYNQKFQGKATLTSDKSSSTANMELNSLTSEDSAVYYCAREGGNDYYDTMDYWGQGTSVTVSS
VL: DIQMTQSPSSMSASVGERVTITCRASQDINSYLSWFQQKPGKSPKTLIYRVNRLVDGVPSRFSGSGSGQDYSLTISSLEPEDMGIYYCLQYDAFPYTFGQGTKLEIKR
Work on B1 yielded an IC50, in vitro cytotoxicity assay (WST-8), EOL-1 cells of 2 pM, an IC50, in vitro cytotoxicity assay (WST-8), KOPN-8 cells of 5 pM and an IC50, in vitro cytotoxicity assay (WST-8), MOLM-1 cells of 20 pM. It also gave a fold loss of cytotoxicity when CD123 is blocked by chCD123-6 of 100 fold.
